Experiments:
[1] = molecular target: T1, Flag-tagged TBC1 Domain Family Member 25 (TBC1D25) (UniProt Q3MII6-1 1-688); test: pull-down; GST-HA-tagged protein from E. coli extracts held on glutathione-sepharose 4B beads, washed with PBS, incubated 4 h at 4 C with immunopurified Flag-tagged protein; washed with NaCl wash buffer; Western blot; GST tag as negative control; details: both partners purified
T1 construct: Vector pcDNA5-flag or pHAGE-3xflag; The reverse primer carries the stop codon, so the tag is probably N-terminal; also called Flag-TBC1D25; OATL1; source: HEK-293T, transfected, in lysate (co-IP); immunopurified and eluted with FLAG peptide (GST pull-down)
T1 sequence (looked up): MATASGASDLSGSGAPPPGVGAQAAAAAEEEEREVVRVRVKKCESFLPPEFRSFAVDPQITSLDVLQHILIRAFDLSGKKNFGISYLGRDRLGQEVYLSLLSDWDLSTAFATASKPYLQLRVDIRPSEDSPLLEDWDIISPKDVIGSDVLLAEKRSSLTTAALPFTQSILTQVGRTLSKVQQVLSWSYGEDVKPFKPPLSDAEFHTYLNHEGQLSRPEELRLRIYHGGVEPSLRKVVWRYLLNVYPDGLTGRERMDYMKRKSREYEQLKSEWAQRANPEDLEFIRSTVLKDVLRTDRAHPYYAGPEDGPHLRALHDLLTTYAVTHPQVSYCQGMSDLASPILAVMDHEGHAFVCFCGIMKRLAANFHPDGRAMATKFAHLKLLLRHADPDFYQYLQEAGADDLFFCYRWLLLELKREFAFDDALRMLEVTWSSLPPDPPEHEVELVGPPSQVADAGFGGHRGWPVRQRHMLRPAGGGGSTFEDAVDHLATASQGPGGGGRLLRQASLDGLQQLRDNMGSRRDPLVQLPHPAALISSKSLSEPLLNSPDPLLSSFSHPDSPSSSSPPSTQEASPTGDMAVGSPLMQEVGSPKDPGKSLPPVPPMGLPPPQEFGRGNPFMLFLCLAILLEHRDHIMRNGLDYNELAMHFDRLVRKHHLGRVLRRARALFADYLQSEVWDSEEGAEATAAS

[2] = molecular target: T2, GST-HA-TBC1D25 (UniProt Q3MII6-1 1-688); test: as above; details: both partners purified
T2 construct: also called OATL1
T2 sequence (looked up): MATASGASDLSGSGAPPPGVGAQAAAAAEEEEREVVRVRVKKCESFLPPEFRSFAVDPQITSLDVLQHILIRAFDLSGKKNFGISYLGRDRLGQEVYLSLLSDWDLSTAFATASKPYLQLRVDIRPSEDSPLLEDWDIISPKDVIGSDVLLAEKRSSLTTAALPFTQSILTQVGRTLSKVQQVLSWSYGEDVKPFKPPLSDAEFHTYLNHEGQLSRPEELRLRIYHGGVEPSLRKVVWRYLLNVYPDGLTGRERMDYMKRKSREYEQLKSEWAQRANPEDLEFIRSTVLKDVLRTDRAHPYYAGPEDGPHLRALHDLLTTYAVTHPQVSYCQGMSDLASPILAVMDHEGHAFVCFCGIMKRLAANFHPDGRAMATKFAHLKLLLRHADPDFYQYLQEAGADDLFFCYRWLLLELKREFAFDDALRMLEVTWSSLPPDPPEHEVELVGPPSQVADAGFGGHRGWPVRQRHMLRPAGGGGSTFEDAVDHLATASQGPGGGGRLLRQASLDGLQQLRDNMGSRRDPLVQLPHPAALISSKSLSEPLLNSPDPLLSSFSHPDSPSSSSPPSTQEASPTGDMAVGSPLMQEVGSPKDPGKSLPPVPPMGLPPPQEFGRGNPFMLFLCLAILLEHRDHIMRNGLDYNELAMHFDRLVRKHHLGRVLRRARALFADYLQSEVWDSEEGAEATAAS

B1: GST-HA-TAK1 (enzyme, UniProt O43318-2 1-579, looked up)
chain: MSTASAASSSSSSSAGEMIEAPSQVLNFEEIDYKEIEVEEVVGRGAFGVVCKAKWRAKDVAIKQIESESERKAFIVELRQLSRVNHPNIVKLYGACLNPVCLVMEYAEGGSLYNVLHGAEPLPYYTAAHAMSWCLQCSQGVAYLHSMQPKALIHRDLKPPNLLLVAGGTVLKICDFGTACDIQTHMTNNKGSAAWMAPEVFEGSNYSEKCDVFSWGIILWEVITRRKPFDEIGGPAFRIMWAVHNGTRPPLIKNLPKPIESLMTRCWSKDPSQRPSMEEIVKIMTHLMRYFPGADEPLQYPCQYSDEGQSNSATSTGSFMDIASTNTSNKSDTNMEQVPATNDTIKRLESKLLKNQAKQQSESGRLSLGASRGSSVESLPPTSEGKRMSADMSEIEARIAATTGNGQPRRRSIQDLTVTGTEPGQVSSRSSSPSVRMITTSGPTSEKPTRSHPWTPDDSTDTNGSDNSIPMAYLTLDHQLQPLAPCPNSKESMAVFEQHCKMAQEYMKVQTEIALLLQRKQELVAELDQDEKDQQNTSRLVQEHKKLLDENKSLSTYYQQCKKQLEVIRSQQQKRQGTS
notes: also called pGEX-4T-1-GST-HA-TAK1; MAP3K7
Does B1 bind [1]?
Result: binds

B2: Flag-TAK1, immunopurified (enzyme, UniProt O43318-2 1-579, looked up)
chain: MSTASAASSSSSSSAGEMIEAPSQVLNFEEIDYKEIEVEEVVGRGAFGVVCKAKWRAKDVAIKQIESESERKAFIVELRQLSRVNHPNIVKLYGACLNPVCLVMEYAEGGSLYNVLHGAEPLPYYTAAHAMSWCLQCSQGVAYLHSMQPKALIHRDLKPPNLLLVAGGTVLKICDFGTACDIQTHMTNNKGSAAWMAPEVFEGSNYSEKCDVFSWGIILWEVITRRKPFDEIGGPAFRIMWAVHNGTRPPLIKNLPKPIESLMTRCWSKDPSQRPSMEEIVKIMTHLMRYFPGADEPLQYPCQYSDEGQSNSATSTGSFMDIASTNTSNKSDTNMEQVPATNDTIKRLESKLLKNQAKQQSESGRLSLGASRGSSVESLPPTSEGKRMSADMSEIEARIAATTGNGQPRRRSIQDLTVTGTEPGQVSSRSSSPSVRMITTSGPTSEKPTRSHPWTPDDSTDTNGSDNSIPMAYLTLDHQLQPLAPCPNSKESMAVFEQHCKMAQEYMKVQTEIALLLQRKQELVAELDQDEKDQQNTSRLVQEHKKLLDENKSLSTYYQQCKKQLEVIRSQQQKRQGTS
notes: Probably expressed in HEK-293T cells like the other Flag constructs; also called MAP3K7; source: immunopurified, eluted with FLAG peptide
Does B2 bind [2]?
Result: binds
